Assay results from the DeepSol protein solubility set.

Assay: soluble on expression in E. coli; label from the status in PepcDB or PDB records

| Sequence | soluble on expression in E. coli |
| --- | --- |
| MSADEPSPEDEKYLESLRDLLKISQEFDASNAKQNDEPEKTAVEVESAETRTDESEKSIDIPREQQLLPSERVEPLKSMVEPEYVKKVIRQMDTMTAEQLKQALMKIKVSTGGNKKTLRKRVAQYYRKENALLNRKMEPNADKTARFFDYLIAIDFECTCVEIIYDYPHEIIELPAVLIDVREMKIISEFRTYVRPVRNPKLSEFCMQFTKIAQETVDAAPYFREALQRLYTWMRKFNLGQKNSRFAFVTDGPHDMWKFMQFQCLLSNIRMPHMFRSFINIKKTFKEKFNGLIKGNGKSGIENMLERLDLSFVGNKHSGLDDATNIAAIAIQMMKLKIELRINQKCSYKENQRSAARKDEERELEDAANVDLTSVDISRRDFQLWMRRLPLKLSSVTRREFINEEYLDCDSCDDLTDDKVKHLHSCDIYEIFDEKTSASFTDSKCLIC | soluble |
| MATTKLSATKSTSRAINYAEKRAVEKSGLNCDVDYAKSSFKAARELYGKTDGNQGHVIIQSFQPGEVTPEQCNQLGLALAEKLVPNHQVAVYTHADTNHVHNHIVLNSIDLNTGKKFNNNKQALRDVRAFNDEVCRAQGLSVPEKDTARLRYTQTEKAIADPNTTSTAQYSWKDDIREAIDQSTATNMEEFQKHLNQHGITIERVTPKSITYRHLAENKKVRGRKLGEDYNKGGIQHGFERQIQRRQQQKHKSDTNFQPKRSTSNRHESTERDTGVTQSDWDQFAQDTNELERRRQAAESARLVDEKARRDREKRVREKPTSRPIINIDRDHGLEL | not soluble |
| MVTSTRARFGQFVHRRRRLLNLTQDEVTAAGGPSDAAQTRAENGTGPDPSIETLRKLDVALRWAPGSAARTLDGGHPTPLEALDGEDRSPAARPLTLGPSEIPLDLDTIIEILGPHTQITKLSAAHPEVPGLAEAAGELSRVVSKITGAYVTRLLEVNGGPTGPRQPLVEFAFGHLLEEPTTVTDPRELEEARYRRFLYGRGEDLDAATRERFWRRWEDAVKLVATEDPERSGDAEVNA | not soluble |
| MGFYQGPDNRKITGGLKGKHRDKRKYEIGNPPTFTTLSAEDIRIKDRTLGGNFKVRLKYTTTANVLDPATNTAKKVKILEILETPANKELARRGIIIRGAKIRTEAGLAVVTSRPGQDGVINAVLLKNESQRS | soluble |
| MGSDKIHHHHHHMGVVETAEWLHLYYGRPEKLCEKFTKYIPLPKERLYRFLISKGMYRPVMRGEREIKELEKKEVWKELRAEYEKLKDWLKGPDVPVFILLSDSYNRTVQEEYNGRAGLSMRHVIFLFVCGRNSVEELKVLLAHEYHHICRLHQIETKETEYTLLDTMIMEGLAEQAVTERYSEKNNAPWTTYLSKEEAIYYWKNVVHERISIKRGTREHDILLNGFHSYPKMLGYALGFHIVKDCVTLEGEDTLSLLPIDAKEILNKANTFHI | not soluble |
| MSTDEERIYSIALTQIPGVGHIGAKRLVDGMGSATDVFRYRTELPDRLPGVNRAVVAALDSPQALKRAEQEYEFARNNRISCFTLADEDYPSRLRECDDAPVVLFFKGKANLNALHIINMVGTRNATDYGKHICVSFLQELQMLCPDVLVVSGLAYGIDINAHRSALSVELPTVGVLAHGLDRIYPSLHRKTAIDMLRQGGLLTEFLSGTNPDKHNFISRNRIVAGISDATIVVESAAKGGSLITADIAGSYHRDCFAFPGRVTDEYSKGCNQLIQDNKAVLLESASDFVKTMGWDSDLKSVKPETVQRNLFPDLSAEELRIVDILGKLGDLQINALMVQADIPINKISAILFELEMKGVIRVLAGGVYQLLR | not soluble |
| IGDWGYSVSANLTTIKNKVKSLVQDGYSIIAGDKQQSYTMAGYPIGFFYGYKVAGVYQSQADIDASPENTLATVTPGDLKFADVNRDGKITPEDRTMIGNPTPDFTYGLSLGVNYKNWSLGIDMMGQHGNEIFRTWDNYNFAQFNYLSQRMDRWHGEGTSNSQPLLNSKHSINNLNSEYYIEDGSFFRIRNVQLAYSFDKALLAKIRLQALKVYVNIQNLKTWKHNTGYTPELGGSATTFGVDDGSYPVPAVYTFGINLTF | not soluble |
| STITTEEVLVTVFQFLEKATEYPYNDPHKTLALVVHGILLTHGFRPSEEEPPENVDNWSLSVENAKIPNCFEENKYGGSYRHYKSCMTFEVRMVPLDKYVVVNAVASDVDRVFYCELKLEKYFKDTVLEGGKLVVPLRNLKWSQILKNVTDMIAVLRTQIIYALVPDSAKEGYEAKTSETHVGQSTNQQSQDSRQFSLPSRDPLRVVPPVGSRYYPSAYIDEDRDSIPVLGQGDLYPGGLPRLERTFPSGPLDGSFAAPDNGSLMGPRHSMFQRRDQRPGPGNNMLPRGAVPPGARFDEFGPRFPPDETYSTLAGWRHRQEMPNNDVDEPPPPEMYM | soluble |
| MADKHLIREKVLRNLNTIDKVEHRERSIKLAEKLFLLPEWNQAKVIGITLARHPEIETETIILQAKKEGKTVLIPKTFYPSRKMEFKKMDSSHPLTKTKFGILEPHELAETVDKDAIDLLIVPGVVFNKAHFRIGFGGGFYDRFLADFKGETVSLCLYEQQIEFTPESHDKPVSILIEG | soluble |
| VKLVIDLLGAQTRSHLRGIGRYTRELTKALLRQAGEAHAIHLVLHAPLEQASDALIAEFGALLPRARIHLLRLPRHTSEHLTGNTWRHHAASRLSRYGLTCLDADVVWHSSVFEGYDEDGVLPDAPLFHTNRVATLYDLIPLHDPEVFLPGSLPKAWYERRSAFLSSCDLLFCLSEWTAQEAVQRLHLDPERLVVIGGGVDSNFRPLVFDAQQRGNLLARFSITRPYVLYNGGLDQRKNVPALLRAFALLPMAIRQRHQLVVLGDDREVHRPMMALCRQLGLDQQEVVFTGRVNDSDLVALYGLCALFVFPSRLEGFGLPVLEAMACGAPTLCSDAASLPEVAGRQDILFPPEDHVALSARMSQVLDDPQWLQSLRDYGLRRATAFTWDRVAQRALDALTRLQVRSSEMKSQRVSEVSPATHTETAAPEMLPITEIQLVTDLAALPGDASRDDLAQAAFSICSMRVAPQAPQWLVDVSQIAKTDIGTGTSRVTRSILREWLSTPPPGVCIVPVYLREGQYHYARSFTAQVLGLVSETPQEGIVMVYPGDVFVGLDWAPEAINAARARLQDWRRVGVATCFVVHDLLPMTLPDCFHPYSRNLFEQWLRTVAHLADAIACISATTAEVLSRWLQDTTVDYQFGIPPQVKHFPLGVSFPEVSTAQEAIREELRTALVMRPTLLIVGTLEPRKGHVHALRICEQLWEQGEDVNLVVVGQRGWSEQALVMRLTRHPEVGRRLFWLSDAADAELSALYVHATALLALSEGEGYGLPLLEAAHFRLPILARPLPVFLEIMADYPHYLDGTAPDTWSATVAQWLHASDRPISRPVPIASWKESAQQLADIVNDCRFLLDSKKLSAPLK | soluble |
| MGSSHHHHHHSSGRENLYFQGHMASQLTDAFARKFYYLRLSITDVCNFRCTYCLPDGYKPSGVTNKGFLTVDEIRRVTRAFARLGTEKVRLTGGEPSLRRDFTDIIAAVRENDAIRQIAVTTNGYRLERDVASWRDAGLTGINVSVDSLDARQFHAITGQDKFNQVMAGIDAAFEAGFEKVKVNTVLMRDVNHHQLDTFLNWIQHRPIQLRFIELMETGEGSELFRKHHISGQVLRDELLRRGWIHQLRQRSDGPAQVFCHPDYAGEIGLIMPYEKDFCATCNRLRVSSIGKLHLCLFGEGGVNLRDLLEDDTQQQALEARISAALREKKQTHFLHQNNTGITQNLSYIGG | soluble |
| MGLVGLHSGTIDMEFIGVEDHGDEEGKQIAVSVISSGKNADKTEDPDSLIFTGFGGTDMYHGQPCNQKLERLNIPLEAAFRKKSIVRVVRCMKDEKRTNGNIYIYDGTYMITNRWEEEGQNGFIVFKFKLVREPDQKPAFGIWKSIQNWRNGLSIRPGLILEDLSNGAENLKVCLVNEVDKENGPALFRYVTSLIHEVINNIPSMVDRCACGRRSCGSKHVFREKLSVSSSLVISAKKSGNVARFMNHSCSPNVFWQSIAREQNGLWCLYIGFFAMKHIPPLTELRYDYGKSRGGGKKMCLCRTKKCCGSFG | soluble |
| METRQASGQLAALVRPNDVNSGSLLFPSKEPGFYVEAPRLKTDVAIDVSGPIARVKVTQRFQNPSQGWIEGTYVFPLPDNSAVDALKMQIGDRFIEGQIKPRQEAREIYEQAKAEGKKTALLEQQRPNIFTNQVANIGPGEEIVVQIEYQQTVHQSGGEFSLRFPMVVAPRYNPAPIVQTVDFNNGAGFAIPRDPVQNREKIEAPVLDPRENARINPVSLTVNLKAGFPLGEVKSSFHDVDIGQDGDQARTISLKGDAVPADKDFELTWKAAPGKTPSAGLFREAIDGKTYLLAFVTPPTAPDAAAPSKREVVFVIDNSGSMSGQSIEQARQSLALAISRLNPNDRFNVIRFDDTMTDYFKGLVAATPDNREKAVAYVRSLTADGGTEMLPALEDALRNQGPVASGALRQVVFLTDGAIGNEQQLFQEITANRGDARVFTVGIGSAPNTYFMTKAAEVGRGTFTQIGSTDQVASRMSELFAKLQNPTMTDIAASFEGIEAEDITPNPMPDLYSGEPVVLTAELPQDKAAGKLQIVGKTGDQPWRVEMDIANAAVGSGISKLWARRKIDDLEARAYERQDPAALDKDIEAVALAHHLVSRVTSLVAVDVTPSRPANEPLGSAKLPLNLPEGWDFGKVFGEKAVPSGGAERHGAATPAGSAEPQRAAAATQDLAASPEIANLMAAAPTAKAATLIAQKSSTVNLPQTATRADEQIMRGLEHHHHHH | soluble |
| MGSDKIHHHHHHVACKPKEKPSSATSLTDDALMDTVQRRTFNYFWDAAEPNSGLARERYHMDGEYPAGGPEIVTSGGSGFGIMAILAGIDRGYVSREEGLRRMEKIVGFLEKADRFKGAYPHWWNGETGHVQPFGQKDNGGDLVETAFLMQGLLAVHQYYAEGSAEEKKLAGRIDKLWREVDWNWYRHGGQNVLYWHWSPEYGWEMNFPVHGYNECLIMYILAAASPTHGVPAAVYHEGWAQNGAIVSPHKVEGIELHLRYQGGEAGPLFWAQYSFLGLDPVGLKDEYCPSYFNEMRNLTLVNREYCIRNPKHYKGYGPDCWGLTASYSVDGYAAHGPLERDDRGVISPTAALSSIVYTPDQSLQVMHHLYEMGDKVFGPYGFYDAFSETADWYPKRYLAIDQGPIAVMIENYRTGLLWKLFMSHPDVQNGLKKLGFNVKK | not soluble |
| MPAKVLINGYGSIGKRVADAVSMQDDMEVIGVTKTKPDFEARLAVEKGYKLFVAIPDNERVKLFEDAGIPVEGTILDIIEDADIVVDGAPKKIGKQNLENIYKPHKVKAILQGGEKAKDVEDNFNALWSYNRCYGKDYVRVVSCNTTGLCRILYAINSIADIKKARIVLVRRAADPNDDKTGPVNAITPNPVTVPSHHGPDVVSVVPEFEGKILTSAVIVPTTLMHMHTLMVEVDGDVSRDDILEAIKKTPRIITVRAEDGFSSTAKIIEYGRDLGRLRYDINELVVWEESINVLENEIFLMQAVHQESIVIPENIDCIRAMLQMEEDNFKSIEKTNKAMGIQ | soluble |
| MPMIIKQEQFIPKDTVETTIDLLIRNLTTIKDNTGEFLLDFDGLKVDDKSWTIWNWPQGVGLYGIYKNYRNTKSEKALQVVNDWFEGRMQEGAPPKNVNTMAPLLTMAYLYEDTKDSKYIPYLEQWAEWVMEEMPRTNEGGLQHATYGPENKNQLWDDTLMMTVLPLAKIGKLLNRLDYLEEAKHQFLIHIKYLQDKKSGLWYHGWTFEGNHNYAEALWARGNCWITIAIPEIIEILELPKGDSLREFLLSTLNAQVAALAKYQDESGLWHTLINDSNSYLESSATAGFAYGILKAVHKKYISSEYEEVANKAIAGLLNEIDETGEVQHVSVGTGMGDNLDFYRTIGMTAMPYGQSLTILCLTELLVSYC | not soluble |
| AIASQFDPDKFKQEQKARWNQGARSTWTLWKQTQVEDTPAKFFLGLVPIRPGVKVLDLACGSGETSLQVAQLVSSHLPSDSKDAKIVCVDISEEMLRVLSQRAQELGLSSVVETCCEDAENINFGTHYFDMVMSQFGVMFLPHLPEDLANIRKMMKPGSLFCCVVWGEEKDCHIFYAARSVVSPPPPPPGTPVSYGTKEKVMEALRKAEFSDVKAVEFQVVHETKDAEEYITLMSGVNQWLEKSLGEKGSGPWQKLVEYCNNSYRTSRGTLQFPNVCVGITAIA | soluble |
